According to ChEMBL document CHEMBL1151784, “Antibiotic evaluation and in vivo analysis of alkynyl Coenzyme A antimetabolites in Escherichia coli” (2008):

How the values were obtained:
[1] = substrate: CCC(=O)OCCNC(=O)CCNC(=O)[C@H](O)C(C)(C)CO; test: (§1) Activity of Escherichia coli K12 CoaA
[2] = substrate: CCOC(=O)NCCNC(=O)CCNC(=O)[C@H](O)C(C)(C)CO; test: as §1
[3] = substrate: C#CC(=O)NCCNC(=O)CCNC(=O)[C@H](O)C(C)(C)CO; test: as §1
[4] = substrate: CCC(=O)NCCNC(=O)CCNC(=O)[C@H](O)C(C)(C)CO; test: as §1
[5] = substrate: CC(C)(CO)[C@@H](O)C(=O)NCCC(=O)O; test: as §1
[6] = substrate: C#CCCNC(=O)CCNC(=O)[C@H](O)C(C)(C)CO; test: as §1
[7] = substrate: C#CCCCNC(=O)CCNC(=O)[C@H](O)C(C)(C)CO; test: as §1
[8] = substrate: CC(C)(CO)[C@@H](O)C(=O)NCCC(=O)NCCN=[N+]=[N-]; test: as §1
[9] = substrate: C#CCNC(=O)CCNC(=O)[C@H](O)C(C)(C)CO; test: as §1
[10] = substrate: C=CCNC(=O)CCNC(=O)[C@H](O)C(C)(C)CO; test: as §1
[11] = substrate: C#CCCCCNC(=O)CCNC(=O)[C@H](O)C(C)(C)CO; test: as §1
[12] = substrate: CCCNC(=O)CCNC(=O)[C@H](O)C(C)(C)CO; test: as §1
[13] = substrate: C#CCNC(=O)[C@H](O)C(C)(C)CO; test: as §1
[14] = substrate: C#CCCC(=O)NCCNC(=O)CCNC(=O)[C@H](O)C(C)(C)CO; test: as §1
[15] = substrate: CCCCCNC(=O)CCNC(=O)[C@H](O)C(C)(C)CO; test: as §1
[16] = substrate: C=CC(=O)NCCNC(=O)CCNC(=O)[C@H](O)C(C)(C)CO; test: as §1
[17] = substrate: CCC(=O)OCCNC(=O)CCNC(=O)[C@H](O)C(C)(C)CO; test: (§2) Ratio of kcat to Km for Escherichia coli K12 CoaA
[18] = substrate: CCOC(=O)NCCNC(=O)CCNC(=O)[C@H](O)C(C)(C)CO; test: as §2
[19] = substrate: C#CC(=O)NCCNC(=O)CCNC(=O)[C@H](O)C(C)(C)CO; test: as §2
[20] = substrate: CCC(=O)NCCNC(=O)CCNC(=O)[C@H](O)C(C)(C)CO; test: as §2
[21] = substrate: CC(C)(CO)[C@@H](O)C(=O)NCCC(=O)O; test: as §2
[22] = substrate: C#CCCNC(=O)CCNC(=O)[C@H](O)C(C)(C)CO; test: as §2
[23] = substrate: C#CCCCNC(=O)CCNC(=O)[C@H](O)C(C)(C)CO; test: as §2
[24] = substrate: CC(C)(CO)[C@@H](O)C(=O)NCCC(=O)NCCN=[N+]=[N-]; test: as §2
[25] = substrate: C#CCNC(=O)CCNC(=O)[C@H](O)C(C)(C)CO; test: as §2
[26] = substrate: C=CCNC(=O)CCNC(=O)[C@H](O)C(C)(C)CO; test: as §2
[27] = substrate: C#CCCCCNC(=O)CCNC(=O)[C@H](O)C(C)(C)CO; test: as §2
[28] = substrate: CCCNC(=O)CCNC(=O)[C@H](O)C(C)(C)CO; test: as §2
[29] = substrate: C#CCNC(=O)[C@H](O)C(C)(C)CO; test: as §2
[30] = substrate: C#CCCC(=O)NCCNC(=O)CCNC(=O)[C@H](O)C(C)(C)CO; test: as §2
[31] = substrate: CCCCCNC(=O)CCNC(=O)[C@H](O)C(C)(C)CO; test: as §2
[32] = substrate: C=CC(=O)NCCNC(=O)CCNC(=O)[C@H](O)C(C)(C)CO; test: as §2

B1: Pantothenate kinase (Escherichia coli K-12), P0A6I3 (protein)
chain: MSIKEQTLMTPYLQFDRNQWAALRDSVPMTLSEDEIARLKGINEDLSLEEVAEIYLPLSRLLNFYISSNLRRQAVLEQFLGTNGQRIPYIISIAGSVAVGKSTTARVLQALLSRWPEHRRVELITTDGFLHPNQVLKERGLMKKKGFPESYDMHRLVKFVSDLKSGVPNVTAPVYSHLIYDVIPDGDKTVVQPDILILEGLNVLQSGMDYPHDPHHVFVSDFVDFSIYVDAPEDLLQTWYINRFLKFREGAFTDPDSYFHNYAKLTKEEAIKTAMTLWKEINWLNLKQNILPTRERASLILTKSANHAVEEVRLRK
B1 showed a Km [1] of 27.8 µM, a Vmax [1] of 0.26 µM/s and a kcat [1] of 0.0108 s⁻¹. For the same protein, the Km [2] was 33.7 µM, the Vmax [2] was 0.25 µM/s and the kcat [2] was 0.0103 s⁻¹. It also gave a Km [3] of 48.5 µM, a Vmax [3] of 0.22 µM/s and a kcat [3] of 0.009 s⁻¹. It also gave a Km [4] of 34.6 µM, a Vmax [4] of 0.22 µM/s and a kcat [4] of 0.00883 s⁻¹. The Km [5] was 35.8 µM, the Vmax [5] was 0.31 µM/s and the kcat [5] was 0.0127 s⁻¹. It also gave a Km [6] of 34 µM, a Vmax [6] of 0.33 µM/s and a kcat [6] of 0.0135 s⁻¹. It also gave a Km [7] of 40.3 µM, a Vmax [7] of 0.29 µM/s and a kcat [7] of 0.012 s⁻¹. It also gave a Km [8] of 43.5 µM, a Vmax [8] of 0.28 µM/s and a kcat [8] of 0.0115 s⁻¹. The Km [9] was 36 µM, the Vmax [9] was 0.31 µM/s and the kcat [9] was 0.0128 s⁻¹. The Km [10] was 41.2 µM, the Vmax [10] was 0.38 µM/s and the kcat [10] was 0.0157 s⁻¹. It also gave a Km [11] of 40 µM, a Vmax [11] of 0.29 µM/s and a kcat [11] of 0.012 s⁻¹. The Km [12] was 36.9 µM, the Vmax [12] was 0.37 µM/s and the kcat [12] was 0.0152 s⁻¹. The Km [13] was 396 µM, the Vmax [13] was 0.26 µM/s and the kcat [13] was 0.0107 s⁻¹. The Km [14] was 47.8 µM, the Vmax [14] was 0.23 µM/s and the kcat [14] was 0.00933 s⁻¹. The Km [15] was 34 µM, the Vmax [15] was 0.34 µM/s and the kcat [15] was 0.014 s⁻¹. It also gave a Km [16] of 58 µM, a Vmax [16] of 0.26 µM/s and a kcat [16] of 0.0107 s⁻¹. The kcat/Km [17] was 392 M⁻¹ s⁻¹, the kcat/Km [18] was 305 M⁻¹ s⁻¹ and the kcat/Km [19] was 185 M⁻¹ s⁻¹. It also gave a kcat/Km [20] of 257 M⁻¹ s⁻¹, a kcat/Km [21] of 352 M⁻¹ s⁻¹ and a kcat/Km [22] of 396 M⁻¹ s⁻¹. For the same protein, the kcat/Km [23] was 299 M⁻¹ s⁻¹, the kcat/Km [24] was 268 M⁻¹ s⁻¹ and the kcat/Km [25] was 356 M⁻¹ s⁻¹. For the same protein, the kcat/Km [26] was 381 M⁻¹ s⁻¹, the kcat/Km [27] was 300 M⁻¹ s⁻¹ and the kcat/Km [28] was 411 M⁻¹ s⁻¹. The kcat/Km [29] was 27 M⁻¹ s⁻¹, the kcat/Km [30] was 195 M⁻¹ s⁻¹ and the kcat/Km [31] was 410 M⁻¹ s⁻¹. It also gave a kcat/Km [32] of 183 M⁻¹ s⁻¹.
